Results reported in the supplement of paper PMC7877785.
± gives the uncertainty stated by the source.

Assay: self-splicing fitness, log relative to wild type (ln ratio); higher = more splicing; Tetrahymena group I intron in knt gene, E. coli kanamycin selection, DiMSum; sequences stand for … in CUCUCU…GGAGGGAAAAGUUAUCAGGCAUGCACCUGGUAGCUAGUCUUUAAACCAAUAGAUUGCAUCGGUUUAAAAGGCAAGACCGUCAAAUUGCGGGAAAGGGGUCAACAGCCGUUCAGUACCAAGUCUCAGGGGAAACUUUGAGAUGGCCUUGCAAAGGGUAUGGUAAUAAGCUGACGGACAUGGUCCUAACCACGCAGCCAAGUCCUAAGUCAACAGAUCUUCUGUUGAUAUGGAUGCAGUUCACAGACUAAAUGUCGGUCGGGGAAGAUGUAUUCUUCUCAUAAGAUAUAGUCGGACCUCUCCUUAAUGGGAGCUAGCGGAUGAAGUGAUGCAACACUGGAGCCGCUGGGAACUAAUUUGUAUGCGAAAGUAUAUUGAUUAGUUUUGGAGUACUCGUGGUCG
Method in brief: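 Library with all eight P1ex-region intron nucleotides randomised, intron inside the knt kanamycin-resistance gene on pET-22b(+), in E. coli BL21(DE3). Cells grew overnight at 37°C or 30°C on LB agar with or without 25 μg/mL kanamycin (plus 100 μg/mL carbenicillin, 50 μM IPTG, 0.2% rhamnose), in six replicate transformations. Pooled colonies were amplicon-sequenced on Illumina HiSeq 2500. DiMSum fitness is the error-weighted combination of wild-type-normalised replicate fold changes, kanamycin versus none.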

Sequence: UAGUAGCAAUAUUACGGUUU
- self-splicing fitness (ln) (30 °C): -3.57 ± 0.31
- self-splicing fitness (ln) (37 °C): -0.883 ± 0.16

Sequence: GAGGAGCAAUAUUACGGUUG
- self-splicing fitness (ln) (30 °C): -3.94 ± 0.23
- self-splicing fitness (ln) (37 °C): -2.17 ± 0.2

Sequence: UCUCAGCAAUAUUACGCUUA
- self-splicing fitness (ln) (30 °C): -2.42 ± 0.31
- self-splicing fitness (ln) (37 °C): -2.93 ± 0.24

Sequence: AAAGAGCAAUAUUACGGGAG
- self-splicing fitness (ln) (30 °C): -3.34 ± 0.21
- self-splicing fitness (ln) (37 °C): -2.8 ± 0.27

Sequence: CACCAGCAAUAUUACGGGAC
- self-splicing fitness (ln) (30 °C): -4.05 ± 0.13
- self-splicing fitness (ln) (37 °C): -2.05 ± 0.1

Sequence: CUGCAGCAAUAUUACGAGCU
- self-splicing fitness (ln) (30 °C): -2.93 ± 0.18
- self-splicing fitness (ln) (37 °C): -2.25 ± 0.21

Sequence: CUAAAGCAAUAUUACGACUA
- self-splicing fitness (ln) (30 °C): -2.79 ± 0.21
- self-splicing fitness (ln) (37 °C): -1.78 ± 0.17

Sequence: ACUUAGCAAUAUUACGUGCG
- self-splicing fitness (ln) (30 °C): -1.29 ± 0.1
- self-splicing fitness (ln) (37 °C): 0.152 ± 0.15

Sequence: CGCUAGCAAUAUUACGGGGC
- self-splicing fitness (ln) (30 °C): -2.87 ± 0.22
- self-splicing fitness (ln) (37 °C): -2.29 ± 0.2

Sequence: GCAAAGCAAUAUUACGGUGU
- self-splicing fitness (ln) (30 °C): -4.55 ± 0.29
- self-splicing fitness (ln) (37 °C): -2.71 ± 0.25

Sequence: ACUUAGCAAUAUUACGAGAG
- self-splicing fitness (ln) (30 °C): -2.21 ± 0.12
- self-splicing fitness (ln) (37 °C): -0.741 ± 0.11

Sequence: CGAGAGCAAUAUUACGCGAU
- self-splicing fitness (ln) (30 °C): -3.7 ± 0.48
- self-splicing fitness (ln) (37 °C): -1.04 ± 0.37

Sequence: UUAGAGCAAUAUUACGCUCU
- self-splicing fitness (ln) (30 °C): -3.64 ± 0.47
- self-splicing fitness (ln) (37 °C): -1.85 ± 0.3

Sequence: GGCAAGCAAUAUUACGUCGU
- self-splicing fitness (ln) (30 °C): -0.68 ± 0.097
- self-splicing fitness (ln) (37 °C): 0.0841 ± 0.11

Sequence: CUUCAGCAAUAUUACGCCCC
- self-splicing fitness (ln) (37 °C): -1.14 ± 0.47

Sequence: GAUCAGCAAUAUUACGGCGA
- self-splicing fitness (ln) (30 °C): -0.479 ± 0.15
- self-splicing fitness (ln) (37 °C): -0.214 ± 0.15

Sequence: CACCAGCAAUAUUACGAUCU
- self-splicing fitness (ln) (30 °C): -4.3 ± 0.23
- self-splicing fitness (ln) (37 °C): -2.43 ± 0.15

Sequence: AGACAGCAAUAUUACGGAAG
- self-splicing fitness (ln) (30 °C): -4.03 ± 0.3
- self-splicing fitness (ln) (37 °C): -1.94 ± 0.18

Sequence: CGUUAGCAAUAUUACGACCC
- self-splicing fitness (ln) (30 °C): -2.92 ± 0.43

Sequence: AACUAGCAAUAUUACGAGCG
- self-splicing fitness (ln) (30 °C): -0.883 ± 0.089
- self-splicing fitness (ln) (37 °C): -0.592 ± 0.098

Sequence: AAUAAGCAAUAUUACGUUGA
- self-splicing fitness (ln) (30 °C): -2.96 ± 0.22
- self-splicing fitness (ln) (37 °C): -2.62 ± 0.2

Sequence: GACCAGCAAUAUUACGUUUC
- self-splicing fitness (ln) (30 °C): -0.69 ± 0.065
- self-splicing fitness (ln) (37 °C): -0.568 ± 0.083

Sequence: GUCUAGCAAUAUUACGCCGU
- self-splicing fitness (ln) (30 °C): -0.884 ± 0.23
- self-splicing fitness (ln) (37 °C): -0.0862 ± 0.26

Sequence: CUUCAGCAAUAUUACGGGUU
- self-splicing fitness (ln) (30 °C): -4.12 ± 0.24
- self-splicing fitness (ln) (37 °C): -2.49 ± 0.23

Sequence: UGCCAGCAAUAUUACGUAUU
- self-splicing fitness (ln) (30 °C): -2.8 ± 0.13
- self-splicing fitness (ln) (37 °C): -2.56 ± 0.16

Sequence: AGAAAGCAAUAUUACGUACA
- self-splicing fitness (ln) (30 °C): -0.839 ± 0.075
- self-splicing fitness (ln) (37 °C): -0.379 ± 0.1

Sequence: AGCAAGCAAUAUUACGUUAC
- self-splicing fitness (ln) (30 °C): -3.47 ± 0.23
- self-splicing fitness (ln) (37 °C): -2.38 ± 0.21

Sequence: UACCAGCAAUAUUACGGAGC
- self-splicing fitness (ln) (30 °C): -3 ± 0.15
- self-splicing fitness (ln) (37 °C): -3.22 ± 0.27

Sequence: GAGCAGCAAUAUUACGAAAA
- self-splicing fitness (ln) (30 °C): -2.68 ± 0.39

Sequence: AUCGAGCAAUAUUACGUGGA
- self-splicing fitness (ln) (30 °C): -3.68 ± 0.37
- self-splicing fitness (ln) (37 °C): -2.33 ± 0.22

Sequence: CCUAAGCAAUAUUACGAUGC
- self-splicing fitness (ln) (30 °C): -3.49 ± 0.17
- self-splicing fitness (ln) (37 °C): -1.88 ± 0.16

Sequence: CGUGAGCAAUAUUACGGAAA
- self-splicing fitness (ln) (30 °C): -2.27 ± 0.3
- self-splicing fitness (ln) (37 °C): -1.14 ± 0.27

Sequence: UACUAGCAAUAUUACGUACA
- self-splicing fitness (ln) (30 °C): -1.56 ± 0.12
- self-splicing fitness (ln) (37 °C): -0.448 ± 0.13

Sequence: CGGUAGCAAUAUUACGGCCU
- self-splicing fitness (ln) (30 °C): -0.555 ± 0.12
- self-splicing fitness (ln) (37 °C): -0.911 ± 0.12

Sequence: CUCAAGCAAUAUUACGAUGU
- self-splicing fitness (ln) (30 °C): -2.6 ± 0.11
- self-splicing fitness (ln) (37 °C): -1.21 ± 0.13

Sequence: UCGCAGCAAUAUUACGAGAC
- self-splicing fitness (ln) (30 °C): -3.18 ± 0.35
- self-splicing fitness (ln) (37 °C): -1.6 ± 0.4

Sequence: UUAUAGCAAUAUUACGCCGA
- self-splicing fitness (ln) (30 °C): -0.888 ± 0.2
- self-splicing fitness (ln) (37 °C): 0.064 ± 0.25

Sequence: CUGGAGCAAUAUUACGGAGA
- self-splicing fitness (ln) (30 °C): -3.11 ± 0.42

Sequence: CGCUAGCAAUAUUACGCUAG
- self-splicing fitness (ln) (30 °C): -2.63 ± 0.22
- self-splicing fitness (ln) (37 °C): -2.16 ± 0.27

Sequence: AUUCAGCAAUAUUACGACAA
- self-splicing fitness (ln) (30 °C): -0.461 ± 0.15
- self-splicing fitness (ln) (37 °C): -0.889 ± 0.19

Sequence: AAGAAGCAAUAUUACGAAAC
- self-splicing fitness (ln) (30 °C): -1.82 ± 0.17
- self-splicing fitness (ln) (37 °C): -0.859 ± 0.15

Sequence: UAUAAGCAAUAUUACGACGC
- self-splicing fitness (ln) (30 °C): -3.44 ± 0.23
- self-splicing fitness (ln) (37 °C): -1.19 ± 0.17

Sequence: UAGGAGCAAUAUUACGGAAU
- self-splicing fitness (ln) (30 °C): -4.06 ± 0.36
- self-splicing fitness (ln) (37 °C): -2.51 ± 0.33

Sequence: CCAAAGCAAUAUUACGAAUA
- self-splicing fitness (ln) (30 °C): -3.55 ± 0.32
- self-splicing fitness (ln) (37 °C): -1.51 ± 0.18

Sequence: UCCGAGCAAUAUUACGUACG
- self-splicing fitness (ln) (30 °C): -3.62 ± 0.47
- self-splicing fitness (ln) (37 °C): -2.34 ± 0.45

Sequence: CAUUAGCAAUAUUACGGUUG
- self-splicing fitness (ln) (30 °C): -1.63 ± 0.09
- self-splicing fitness (ln) (37 °C): -0.664 ± 0.11

Sequence: UUUUAGCAAUAUUACGAUUG
- self-splicing fitness (ln) (30 °C): -1.52 ± 0.14
- self-splicing fitness (ln) (37 °C): -0.255 ± 0.16

Sequence: AGCUAGCAAUAUUACGGCUG
- self-splicing fitness (ln) (30 °C): -0.696 ± 0.11
- self-splicing fitness (ln) (37 °C): -0.185 ± 0.14

Sequence: AAUGAGCAAUAUUACGGCCG
- self-splicing fitness (ln) (30 °C): -2.12 ± 0.15
- self-splicing fitness (ln) (37 °C): -1.36 ± 0.2

Sequence: GAAUAGCAAUAUUACGCGGG
- self-splicing fitness (ln) (37 °C): -0.0263 ± 0.25

Sequence: GCUUAGCAAUAUUACGCGGA
- self-splicing fitness (ln) (30 °C): -1.32 ± 0.071
- self-splicing fitness (ln) (37 °C): -0.345 ± 0.071

Sequence: UUAAAGCAAUAUUACGCUGC
- self-splicing fitness (ln) (30 °C): -2.18 ± 0.15
- self-splicing fitness (ln) (37 °C): -2.71 ± 0.38

Sequence: GAGCAGCAAUAUUACGAGGC
- self-splicing fitness (ln) (30 °C): -2.67 ± 0.47

Sequence: UCGGAGCAAUAUUACGCGGA
- self-splicing fitness (ln) (30 °C): -2.32 ± 0.33
- self-splicing fitness (ln) (37 °C): 0.916 ± 0.15

Sequence: UUAUAGCAAUAUUACGGGAC
- self-splicing fitness (ln) (30 °C): -2.91 ± 0.31
- self-splicing fitness (ln) (37 °C): -2.4 ± 0.34

Sequence: CUAUAGCAAUAUUACGUUGA
- self-splicing fitness (ln) (30 °C): -3.67 ± 0.32
- self-splicing fitness (ln) (37 °C): -3.42 ± 0.35

Sequence: CUGAAGCAAUAUUACGCGAG
- self-splicing fitness (ln) (30 °C): -0.671 ± 0.088
- self-splicing fitness (ln) (37 °C): -0.527 ± 0.11

Sequence: UAUGAGCAAUAUUACGGAAG
- self-splicing fitness (ln) (30 °C): -3.37 ± 0.37
- self-splicing fitness (ln) (37 °C): -2.14 ± 0.36

Sequence: GACCAGCAAUAUUACGGUGU
- self-splicing fitness (ln) (30 °C): -0.661 ± 0.055
- self-splicing fitness (ln) (37 °C): -0.365 ± 0.084

Sequence: UUCUAGCAAUAUUACGGUGA
- self-splicing fitness (ln) (30 °C): -0.462 ± 0.086
- self-splicing fitness (ln) (37 °C): -0.28 ± 0.11

Sequence: UUCAAGCAAUAUUACGCCAG
- self-splicing fitness (ln) (30 °C): 0.732 ± 0.48
- self-splicing fitness (ln) (37 °C): 0.119 ± 0.33

Sequence: UUCAAGCAAUAUUACGUACU
- self-splicing fitness (ln) (30 °C): -1.3 ± 0.13
- self-splicing fitness (ln) (37 °C): -0.455 ± 0.15
